The text below walks through data of publication doi:10.1101/2025.07.10.664194.

Holding throughout (experiment): mass photometry
Experiment [1] concerns the target PaAbpA (not stated (prefix Pa)).
Experiment [2] deals with BtHamA (not stated (prefix Bt)).
In another experiment the target is EcPD-T4-8 (E. coli).
Experiment [3] concerns the target EcHna (E. coli (from the prefix Ec)).
For experiment [4], the target named is PfOloA (not stated (prefix Pf)).
The target of the next experiment is EcPD-T4-1 (E. coli).

Regarding PaAbpB (natural protein), the stoichiometry N (AbpA:AbpB (1:1)) in experiment [1] came to 1. BtHamB (natural protein) displayed a stoichiometry N (HamA:HamB (1:1)) in experiment [2] of 1.

In general, stoichiometry N refers to the number of molecules, sites or subunits per partner or assembly. Turning to EcPD-T4-8 (natural protein), the stoichiometry N with EcPD-T4-8 (E. coli) worked out at 4. Substance EcHna (natural protein) had a stoichiometry N in experiment [3] of 2. PfOloB (natural protein) displayed a stoichiometry N (OloA:OloB (2:2)) in experiment [4] of 1. In turn, EcPD-T4-1 (natural protein) returned a stoichiometry N with EcPD-T4-1 (E. coli) of 2.
